# Measurements taken from patent US20260008852A1 (CRYSTAL BIOSCIENCE, published 2026).
# Where a chain is given by its changes, count along the chain named.
# T1: His-tagged human B7-H3 (human, UniProt Q5ZPR3-2 29-245, limits assumed)
# T1 construct: Bought His-tagged protein coated on the ELISA plate; also called hu B7-H3; CD276
# T1 sequence (looked up): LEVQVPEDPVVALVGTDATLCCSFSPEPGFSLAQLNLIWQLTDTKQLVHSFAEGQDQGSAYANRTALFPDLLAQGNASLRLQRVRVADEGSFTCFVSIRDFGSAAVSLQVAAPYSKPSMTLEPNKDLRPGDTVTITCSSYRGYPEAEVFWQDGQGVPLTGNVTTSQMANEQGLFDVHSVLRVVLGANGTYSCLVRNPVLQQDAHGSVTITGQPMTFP
# T2: His-tagged mouse B7-H3 (mouse, UniProt Q8VE98 29-244, limits assumed)
# T2 construct: Bought His-tagged protein coated on the ELISA plate; also called mu B7-H3; murine B7-H3
# T2 sequence (looked up): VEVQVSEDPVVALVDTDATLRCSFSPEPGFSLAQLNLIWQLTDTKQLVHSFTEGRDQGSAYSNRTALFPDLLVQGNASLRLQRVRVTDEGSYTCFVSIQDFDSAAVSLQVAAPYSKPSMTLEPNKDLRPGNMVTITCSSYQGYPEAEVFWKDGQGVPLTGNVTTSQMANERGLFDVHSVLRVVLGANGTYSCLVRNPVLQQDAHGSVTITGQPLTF
# T3: His-tagged cynomolgus monkey B7-H3 (cynomolgus monkey)
# T3 chain: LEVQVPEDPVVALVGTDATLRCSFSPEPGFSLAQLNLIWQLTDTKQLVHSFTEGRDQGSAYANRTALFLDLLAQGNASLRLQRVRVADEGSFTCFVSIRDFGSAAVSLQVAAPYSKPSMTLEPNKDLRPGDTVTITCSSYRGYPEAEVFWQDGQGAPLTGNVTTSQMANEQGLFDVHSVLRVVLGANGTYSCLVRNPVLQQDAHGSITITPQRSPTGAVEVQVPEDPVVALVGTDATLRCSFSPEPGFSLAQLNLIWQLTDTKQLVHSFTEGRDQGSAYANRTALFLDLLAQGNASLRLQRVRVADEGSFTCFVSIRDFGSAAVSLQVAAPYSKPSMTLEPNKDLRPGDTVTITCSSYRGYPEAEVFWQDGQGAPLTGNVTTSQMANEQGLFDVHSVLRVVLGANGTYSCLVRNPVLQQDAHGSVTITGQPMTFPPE
# T4: B7-H3 on B7-H3-expressing CHO cells (Genescript) (UniProt Q5ZPR3 29-534, limits assumed)
# T4 construct: whole, on cells; also called CHO-K1/B7-H3; MFI B7-H3
# T4 sequence (looked up): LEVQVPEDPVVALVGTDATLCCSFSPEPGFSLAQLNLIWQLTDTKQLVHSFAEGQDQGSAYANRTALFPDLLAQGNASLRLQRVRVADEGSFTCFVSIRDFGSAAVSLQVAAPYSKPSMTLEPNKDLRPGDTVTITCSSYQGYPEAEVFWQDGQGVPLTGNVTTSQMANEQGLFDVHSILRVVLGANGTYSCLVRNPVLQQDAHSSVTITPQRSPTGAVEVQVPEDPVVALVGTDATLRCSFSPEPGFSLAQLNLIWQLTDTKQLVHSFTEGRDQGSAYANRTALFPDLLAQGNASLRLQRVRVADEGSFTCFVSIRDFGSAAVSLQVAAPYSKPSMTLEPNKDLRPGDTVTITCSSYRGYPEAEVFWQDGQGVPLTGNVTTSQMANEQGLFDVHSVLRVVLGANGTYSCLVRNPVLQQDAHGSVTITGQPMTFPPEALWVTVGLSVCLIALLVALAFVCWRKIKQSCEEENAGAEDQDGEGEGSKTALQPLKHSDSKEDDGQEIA
# B1: 40633p1.2.A10 (scFv, V domains shown)
# VH: EVQLLESGGGLVQPGGSLRLSCAASGFTVSYYGMSWVRQAPGKGLEWVSVIKQDGSEEYYADSVKGRFTISRDNSKNTLYLQMNSLRAEDTAVYYCARHWNDYSNGMNVWGQGTTVTVSS
# VL: QSVLTQPPSASGTPGQRVTISCSGSTSNVGDRYVYWYQQLPGTAPKLLIYLDDQRPSGVPDRFSGSKSGTSASLAISGLQSEDEADYYCASWDASLNGWVFGGGTKLTVL
# notes: Tested as scFv-Fc (Expi293 supernatant)
# B2: 40633p1.1.E3 (scFv, V domains shown)
# VH: B1 VH with V50A, E58K, G106A
# VL: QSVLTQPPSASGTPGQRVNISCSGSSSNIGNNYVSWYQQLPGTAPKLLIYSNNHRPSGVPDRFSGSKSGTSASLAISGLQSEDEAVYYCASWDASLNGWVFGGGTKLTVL
# notes: as for B1
# B3: 40633p1.1.B3 (scFv, V domains shown)
# VH: B1 VH with V50A, E58K, G106A
# VL: B1 VL with V29I, D31R, R32E, Y33S, L51T, D52I, A90G, S91T, A94D, G98A
# notes: as for B1
# B4: 40633p1.1.G11 (scFv, V domains shown)
# VH: B1 VH with L86P
# VL: B1 VL
# notes: as for B1
# B5: 40633p1.1.A7 (scFv, V domains shown)
# VH: B1 VH with V50A, E58K, G106A
# VL: B1 VL with V29I, D31R, R32E, Y33S, L51T, D52I, D86V
# notes: as for B1
# B6: 40633p1.2.E1 (scFv, V domains shown)
# VH: B1 VH with G9R
# VL: B1 VL
# notes: as for B1
# B7: 40633p1.2.F3 (scFv, V domains shown)
# VH: B1 VH
# VL: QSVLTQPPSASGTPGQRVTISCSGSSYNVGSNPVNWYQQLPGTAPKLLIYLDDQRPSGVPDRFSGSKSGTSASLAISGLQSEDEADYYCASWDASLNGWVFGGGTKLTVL
# notes: as for B1
# B8: 40633p1.2.C3 (scFv, V domains shown)
# VH: B1 VH with V50A, E58K, G106A, G111E
# VL: B1 VL with T26N, D31G, R32N, Y35S, L51R, D52N, D53S, D86V
# notes: as for B1
# B9: 40633p1.2.E11 (scFv, V domains shown)
# VH: EVQLLESGGGLVQPGGSLRLSCAASGFSFSNYDMSWVRQAPGKGLEWVAGIRSGSRTYYADSVKGRFTISRDNSKNTLYLQMNSLRAEDTATYYCGRYFNMDVWGQGTTVTVSS
# VL: QSVLTQPPSASGTPGQRVTISCSGSTFNIGTNLVHWYQQLPGTAPKLLIYLTDRRPPGVPDRFSGSKSGTSASLAISGLQSEDEANYYCATWDDSLNSFLFGGGTKLTVL
# notes: as for B1
# B10: 40633p1.2.A8 (scFv, V domains shown)
# VH: EVQLLESGGGLLQPGGSLRLSCAASGFSFSSYGMHWVRQAPGKGLEWVAAINSDGSRIYYADSVKGRFTISRDNSKNTLYLQMNSLRAEDTAVYYCTKYYYHYAMDVWGQGTTVTVSS
# VL: QSVLTQPPSASGTPGQRVTISCSGSRSDIGATTVNWYQQLPGTAPKLLIYQSHLRPSGVPDRFSGSKSGTSASLAISGLQSEDEADYYCASWDASLNTWVFGGGTKLTVL
# notes: as for B1
# B11: 40633p1.1.B12 (scFv, V domains shown)
# VH: B10 VH
# VL: B10 VL with I49T
# notes: as for B1
# B12: 40633p1.2.G9 (scFv, V domains shown)
# VH: B10 VH with K65E
# VL: B10 VL
# notes: as for B1
# B13: 40633p1.1.D11 (scFv, V domains shown)
# VH: EVQLLESGGGLVQPGGSLRLSCAASGFTFRSYAMSWVRQAPGKGLEWVAYIGSSGGTTYYADSVKGRFTISRDNSKNTLYLQMNSLRAEDTAVYYCVKESYYYMDVWGQGTTVTVSS
# VL: QSVLTQPPSASGTPGQRVTISCSATISNIDINRVSWYQQLPGTAPKLLIFNSQRPSGVPDRFSGSKSGTSASLAISGLQSEDEADYYCATWDDSLNSWVFGGGTKLTVL
# notes: as for B1
# B14: 40633p1.1.E4 (scFv, V domains shown)
# VH: EVQLLESGGGLVQPGGSLRLSCAASGFTFSSYWMSWVRQAPGKGLEWVSGISSSGSATYYADSVKGRFTISRDNSKNTLYLQMNSLRAEDTAVYYCARWNDYDIMDVWGQGTTVTVSS
# VL: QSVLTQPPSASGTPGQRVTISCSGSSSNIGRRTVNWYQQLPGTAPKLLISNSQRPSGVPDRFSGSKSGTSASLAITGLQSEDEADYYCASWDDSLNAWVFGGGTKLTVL
# notes: as for B1
# B15: 40633p1.1.C11 (scFv, V domains shown)
# VH: B14 VH with S49A, S52N, S53R, S54N, S56G, A57T
# VL: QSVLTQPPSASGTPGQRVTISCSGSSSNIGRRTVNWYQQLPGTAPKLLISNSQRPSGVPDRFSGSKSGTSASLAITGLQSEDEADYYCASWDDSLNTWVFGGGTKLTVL
# notes: as for B1
# B16: 40633p1.2.D7 (scFv, V domains shown)
# VH: B14 VH with G10S
# VL: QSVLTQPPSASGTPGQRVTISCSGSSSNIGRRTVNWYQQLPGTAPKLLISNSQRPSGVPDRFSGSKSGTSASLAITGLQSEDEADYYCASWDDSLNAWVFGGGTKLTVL
# notes: as for B1
# Target: T1, His-tagged human B7-H3
# Assay: ELISA OD450 on hu B7-H3 over OD450 on mu B7-H3
# Description: (§1) The variable regions of heavy and light chains were cloned and assembled into a single chain Fv-Fc (ScFv-Fc) mammalian expression vector. Sanger sequencing was performed by GeneWiz and sequences were evaluated using DNASTAR Lasergene 15. Unique scFv-Fes were transiently expressed in Expi293 cells (Life Technologies, #A14527) grown in Expi293 Expression Medium (Life Technologies, #A1435101) after transfection using the ExpiFectamine transfection reagent and supplements (Life Technologies, #A14524). Cells were incubated for 3-5 days with shaking at 37° C. in a 5% CO2 humidified incubator.
row,hu:mu ratio,Binder
1,1.06,B1
2,3.01,B2
3,1.11,B3
4,1.12,B4
5,0.991,B5
6,0.961,B6
7,1.03,B7
8,2.01,B8
9,1.5,B9
10,1.11,B10
11,1.04,B11
12,1.13,B12
13,1.18,B13
14,1.29,B14
15,1.13,B15
16,1.45,B16

# Target: T1, His-tagged human B7-H3
# Assay: ELISA, coated His-tagged antigen, scFv-Fc 1 ug/ml
# Description: as §1
row,ELISA OD450 @ 1 ug/ml,Binder
1,2.14 OD450,B1
2,0.554 OD450,B2
3,2.04 OD450,B3
4,2.05 OD450,B4
5,1.95 OD450,B5
6,1.9 OD450,B6
7,1.96 OD450,B7
8,1.78 OD450,B8
9,2.09 OD450,B9
10,2.17 OD450,B10
11,1.83 OD450,B11
12,2.08 OD450,B12
13,1.72 OD450,B13
14,1.95 OD450,B14
15,2.09 OD450,B15
16,2.19 OD450,B16

# Target: T2, His-tagged mouse B7-H3
# Assay: ELISA, coated His-tagged antigen, scFv-Fc 1 ug/ml
# Description: as §1
row,ELISA OD450 @ 1 ug/ml,Binder
1,2.02 OD450,B1
2,0.184 OD450,B2
3,1.83 OD450,B3
4,1.83 OD450,B4
5,1.97 OD450,B5
6,1.98 OD450,B6
7,1.91 OD450,B7
8,0.886 OD450,B8
9,1.4 OD450,B9
10,1.95 OD450,B10
11,1.75 OD450,B11
12,1.85 OD450,B12
13,1.45 OD450,B13
14,1.51 OD450,B14
15,1.85 OD450,B15
16,1.51 OD450,B16

# Target: T3, His-tagged cynomolgus monkey B7-H3
# Assay: ELISA, coated His-tagged antigen, scFv-Fc 1 ug/ml
# Description: as §1
row,ELISA OD450 @ 1 ug/ml,Binder
1,2.14 OD450,B1
2,1.63 OD450,B2
3,1.89 OD450,B3
4,1.72 OD450,B4
5,1.7 OD450,B5
6,1.95 OD450,B6
7,2.04 OD450,B7
8,2.01 OD450,B8
9,2.14 OD450,B9
10,2.16 OD450,B10
11,1.72 OD450,B11
12,2.41 OD450,B12
13,1.91 OD450,B13
14,1.86 OD450,B14
15,1.65 OD450,B15
16,1.92 OD450,B16

# Target: T4, B7-H3 on B7-H3-expressing CHO cells …
# Assay: flow cytometry, B7-H3-expressing CHO cells, 10 ug/ml
# Description: Binding of anti-B7-H3 antibodies to cell lines was assessed by flow cytometry. Briefly, approximately 1.5 e5 B7-H3-expressing CHO cells (Genescript) or parent CHO cells (ATCC) were resuspended in FACS buffer (PBS/1% BSA/0.01% NaN3) containing 10 μg/ml of anti-B7-H3 antibodies and incubated for 60 min on ice. […] Cells were then washed twice, resuspended in FACS buffer, and read on an Attune Flow Cytometer (Life Technologies). Data are expressed as Mean Fluorescent Intensities (MFI).
row,MFI @ 10 ug/ml,Binder
1,63500 MFI,B1
2,44000 MFI,B2
3,74700 MFI,B3
4,75900 MFI,B4
5,76400 MFI,B5
6,64700 MFI,B6
7,68800 MFI,B7
8,53100 MFI,B8
9,81300 MFI,B9
10,62200 MFI,B10
11,65400 MFI,B11
12,67600 MFI,B12
13,78600 MFI,B13
14,80000 MFI,B14
15,81100 MFI,B15
16,75100 MFI,B16
